Laboratory results as given in the supplement of paper PMC12042874.
± gives the uncertainty stated by the source.

assay: amyloid nucleation score (Sup35N fusion, yeast selection) (log enrichment); library NNK1; higher = more nucleation; inactive = no reads after selection
Outline: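 The nucleation score is the DiMSum log enrichment of output over input reads, centred on the mode score of non-aggregating sequences. Only sequences with 100 or more input reads were scored, using Illumina sequencing of input and output plasmid inserts. Psi-negative yeast expressing Sup35N fused to peptides of 20 random codons were induced 24 hours with 100 μM copper sulfate and grown 7 days at 30°C on medium lacking adenine and uracil.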

Substance | amyloid nucleation score
RRLYSKKILRDWLASSFSTD | inactive
SFCSFEF | 0.858 ± 0.88
LLMYLLHSCYNVMHCLCLNF | 0.128 ± 0.21
TSFWLSVKSTNPFNRRQFSD | 0.436 ± 0.35
NGANMLVCKRFVLVNLYGPA | 6.02 ± 0.063
MSLSDNWGL | -0.288 ± 0.69
YLDFNHM | inactive
RVYMFLARFGRESGWSVRQW | 0.169 ± 1
FMIVKFLIL | 1.5 ± 0.26
IPGTPMT | inactive
ILNTTHCHKHKKTCEHSACD | -0.883 ± 0.48
LQIYCAPGFV | 0.38 ± 1.2
SRRFYLTPELPVTHVCCVGK | 1.03 ± 0.62
YDYSLCANIMNRYHAK | 0.333 ± 0.29
CGVNLKNLLTMLPDIGLHAV | 0.227 ± 0.25
MWLQHYWTHQAY | 0.59 ± 0.88
TFVSL | 0.332 ± 0.49
ACKCAFSGFSYVAFGPVMGG | -1.61 ± 1.9
VRVNRLSFLNNALLFWLFAK | 2.3 ± 0.1
YRGKRDKVVGSMMCMWRT | 0.518 ± 0.52
SCKDSCTEYSGAIYVLVWVK | 0.604 ± 0.56

Substance | amyloid nucleation score
SVLTGNVTGDDGLCKSSIYA | 0.515 ± 0.34
HMISVDITLVSLWRRIL | -0.402 ± 0.81
AWSRLSVNPVVEENVMAIAL | 0.909 ± 0.69
FSCCILPCSLSHSMVFLGSG | 8.064 ± 0.08
GSLSVAATSFTVMYRVKLVF | 0.085 ± 0.58
TDCGSTMNGGCINMCVCGHR | 7.422 ± 0.069
FSNLKISWECNRCGSYYDCE | -0.122 ± 1.4
PMVTSSCFRCTLLCSQFWQF | 0.444 ± 0.26
LVPPGSYRSCLSHGRNCYSC | -0.203 ± 0.46
LIDRCWMAGRAFNLLMF | -0.331 ± 0.76
YTVPQSLSLLCSAYLILLDA | 0.561 ± 0.43
NVYWNRWAMTFWLSGDEMWF | 1.27 ± 0.42
LCARFWDCRFKVQ | 0.142 ± 1.4
KRIVCMFSWPSLT | -0.921 ± 0.88
PIKEVPNTSRLLFSVCMKWH | 0.504 ± 0.74
WTFTVVFFLKVSSL | 0.81 ± 0.78
SIPIVL | 0.267 ± 0.35
GEIGKKNY | 1.2 ± 0.35
TFRQVPAQFNMASRDKNSTI | inactive
GNSSNAMKFEIHISSDHVAY | 0.845 ± 0.14
NLTRITF | -0.762 ± 1.1

Substance | amyloid nucleation score
CCGCWYIITKPYSNKVRKCA | 0.265 ± 0.73
GSTCIRTGSVIVGRL | 0.301 ± 0.28
LQYGGQVISLNNR | 1.97 ± 0.72
NCNKSFNLLECGSFGTVGPM | -0.324 ± 0.6
GSHIVLSSFFGMLMLWGVDP | 0.56 ± 0.39
DLSSRFGRVETERGGKVKCQ | -0.299 ± 1.1
SYKGFRSGKVWCFNEASYTS | 1.18 ± 0.45
CVSYNLFLWSYFKRWSNRTC | 0.141 ± 0.79
VGKVCRTFNRSMGETS | 0.439 ± 0.92
PKMAPRNINVGRS | 0.26 ± 0.54
ARVSGILLVMLCRYHFGLRE | 0.102 ± 0.69
LVPRIRFWDYHNTELATHQK | 5.13 ± 0.07
YNAASKGEINPNAGNVILFV | 3.13 ± 0.1
GTFSDAFVLLIFCLYGINYL | 1.54 ± 0.53
PYFDTEHERVKDH | 0.398 ± 0.62
MVGRNWKTGSIVTLVMFRLE | 0.041 ± 1.1
LYHSVSSVEDLQSDACTSCM | 6.728 ± 0.046
GDANLGKQLWRGWNVG | 0.228 ± 1.2
PLTVVLRSV | inactive
GRDRSWDIRWLYTLTEPTWH | -1.62 ± 2.7
VNCVGKLKFDE | 0.05 ± 0.18
